Values of other authors in PMC3091359.

Molecular target: (Pro)renin (Homo sapiens) (UniProt P00797)
Sequence of UniProt P00797 (P00797 67-406): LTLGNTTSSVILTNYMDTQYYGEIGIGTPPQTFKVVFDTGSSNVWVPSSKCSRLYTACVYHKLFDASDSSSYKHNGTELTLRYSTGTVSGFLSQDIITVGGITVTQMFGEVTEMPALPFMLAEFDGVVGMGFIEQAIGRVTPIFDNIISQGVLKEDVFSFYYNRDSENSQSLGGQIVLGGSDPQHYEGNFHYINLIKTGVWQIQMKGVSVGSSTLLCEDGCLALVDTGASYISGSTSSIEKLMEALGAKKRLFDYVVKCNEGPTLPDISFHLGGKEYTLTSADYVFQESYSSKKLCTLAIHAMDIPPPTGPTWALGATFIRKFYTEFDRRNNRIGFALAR

(Pro)renin receptor (from UniProt Q6AXS4)
Kd: 3.7 nM
